From PMC9317729

Target: S-RBD-Rhizavidin fusion protein (SARS-CoV-2 | not stated) (UniProt P0DTC2)
Experiment: SEC-MALS; HPLC-SEC on AdvanceBio SEC 1.9 μm column, 0.4 mL/min, 20 mM HEPES, 100 mM sodium chloride, 25 °C; about 20 micrograms injected; MALS with first order Zimm fit

S-RBD-Rhizavidin fusion protein (from UniProt P0DTC2 331-524)
stoichiometry N: 2
